Assay results reported in patent US20210260070A1, “LYSIN CF-301 RESENSITIZES METHICILLIN-RESISTANT STAPHYLOCOCCUS AUREUA (MRSA) TO PENICILLIN DERIVATIVES AND FIRST GENERATION CEPHALOSPORINS” (priority 2018, published 2021).

Experiments:
MRSA = assay: Standard rabbit model of MRSA infective endocarditis (IE), CFU in valvular vegetations; assay type: in vivo, Staphylococcus aureus
Procedure: (§1) An ex vivo analysis was performed on tissue samples recovered after PlySs2 treatment in a standard rabbit model of MRSA infective endocarditis (IE), as disclosed in Xiong et al., Comparative efficacy of telavancin and daptomycin in experimental endocarditis due to multi-clonotype MRSA strains, J. ANTIMIC. CHEMO. (2016); 71(1):2890-94. The standard rabbit IE model was used to confirm the impact of PlySs2 treatment on oxacillin MICs. Four days after treatment with a single-dose of PlySs2 (0.18 mg/kg to 1.4 mg/kg) in the IE model, isolates were recovered from valvular vegetations and plated on TSAB (non-selective condition, Tables 3 and 4) and TSAB supplemented with PlySs2 over a range of concentrations (selective conditions, Tables 5 and 6). MIC values of the MRSA isolates were determined for both PlySs2 and oxacillin. Tables 3 and 4 below show the MICs calculated for PlySs2 and oxacillin, respectively, for valvular vegetations subject to the non-selective conditions.

MRSA strain JMI 227 = assay: Broth microdilution checkerboard assay; assay type: cell-based, Staphylococcus aureus; parameters: unit not given here; conditions: for MICfinal: * = Resensitization
From the text: (§2) In some embodiments, the present lysin polypeptides reduce the minimum inhibitory concentration (MIC) of an antibiotic. Any known method to assess MIC may be used. In some embodiments, a checkerboard assay is used to determine the effect of a lysin on antibiotic concentration. The checkerboard assay is based on a modification of the CLSI method for MIC determination by broth microdilution (See Clinical and Laboratory Standards Institute (CLSI), CLSI. 2015. Methods for Dilution Antimicrobial Susceptibility Tests for Bacteria That Grow Aerobically; Approved Standard-10th Edition. Clinical and Laboratory Standards Institute, Wayne, Pa., which is herein incorporated by reference in its entirety and Ceri et al. 1999. J. Clin. Microbiol. 37: 1771-1776, which is also herein incorporated by reference in its entirety).
(§3) Checkerboards are constructed by first preparing columns of e.g., a 96-well polypropylene microtiter plate, wherein each well has the same amount of antibiotic diluted 2-fold along the horizontal axis. […] The lysin and antibiotic dilutions are then combined, so that each column has a constant amount of antibiotic and doubling dilutions of lysin, while each row has a constant amount of lysin and doubling dilutions of antibiotic. Each well thus has a unique combination of lysin and antibiotic. Bacteria are added to the drug combinations at a given concentration. […] Summation fractional inhibitory concentrations (ΣFICs) are calculated for each drug and the minimum ΣFIC value (ΣFICmin) is used to determine the effect of the lysin/antibiotic combination.
(§4) A step-wise approach was used to evaluate PlySs2 as a resensitizing agent. First, broth microdilution checkerboard assays were used to determine fractional inhibitory concentration index (FICI) values for combinations of PlySs2 with three β-lactam antibiotics [oxacillin (OXA), nafcillin (NAF), and cefazoline (CFZ)] against nine different MRSA strains. Data from the checkerboard assays were generated to determine the interaction and potency of PlySs2 with the β-lactam antibiotics in comparison to their individual activities. This comparison is represented as the FICI value, whereby values of ≤0.5 are consistent with synergy, values of >0.5-<1 are highly-additive, values of 1-≤2 are indifferent, and values >2 are antagonistic. Representative single agent MICs are also shown, determined for each agent alone (initial) and in combinations (final). Resensitization occurs in synergistic combinations in which the β-lactam antibiotic MIC values fall below established breakpoints, e.g. a MIC value of ≤2 for β-lactam-sensitive isolates, a MIC value of ≥4 for β-lactam-resistant isolates. See Clinical and Laboratory Standards Institute (CLSI), CLSI. 2019. M100 Performance Standards for Antimicrobial Susceptibility Testing; 29th Edition. Clinical and Laboratory Standards Institute, Wayne, Pa.

MRSA strain JMI 1280 = assay: Broth microdilution checkerboard assay; assay type: cell-based, Staphylococcus aureus; parameters: unit not given here; conditions: for MICfinal: * = Resensitization
From the text: as §2, §3, §4

MRSA strain JMI4789 = assay: Broth microdilution checkerboard assay; assay type: cell-based, Staphylococcus aureus; parameters: unit not given here; conditions: for MICfinal: * = Resensitization
From the text: as §2, §3, §4

[1] = system: MRSA isolates from valvular vegetations; assay: MIC values of MRSA isolates recovered from valvular vegetations after PlySs2 treatment (ex vivo); assay type: cell-based, Staphylococcus aureus
Procedure: as §1

S. aureus strain MW2 = assay: MIC of parental strain; assay type: cell-based, Staphylococcus aureus
Procedure: as §1

[2] = in combination PlySs2 + CFZ (final)
[3] = in combination PlySs2 + NAF (final)
[4] = in combination PlySs2 + OXA (final)
[5] = non-selective, PlySs2 0.18 mg/kg (n = 24)
[6] = non-selective, PlySs2 0.35 mg/kg (n = 24)
[7] = non-selective, PlySs2 0.7 mg/kg (n = 24)
[8] = non-selective, PlySs2 1.4 mg/kg (n = 24)
[9] = selective conditions, PlySs2 0.18 mg/kg (n = 24)
[10] = selective conditions, PlySs2 0.35 mg/kg (n = 24)
[11] = selective conditions, PlySs2 0.7 mg/kg (n = 24)
[12] = selective conditions, PlySs2 1.4 mg/kg (n = 24)

B1: PlySs2: bacteriophage lysin derived from Streptococcus suis, amino acid sequence SEQ ID NO: 1 (245 residues) (protein, listed as Streptococcus suis)
chain: MTTVNEALNNVRAQVGSGVSVGNGECYALASWYERMISPDATVGLGAGVGWVSGAIGDTISAKNIGSSYNWQANGWTVSTSGPFKAGQIVTLGATPGNPYGHVVIVEAVDGDRLTILEQNYGGKRYPVRNYYSAASYRQQVVHYITPPGTVAQSAPNLAGSRSYRETGTMTVTVDALNVRRAPNTSGEIVAVYKRGESFDYDTVIIDVNGYVWVSYIGGSGKRNYVATGATKDGKRFGNAWGTFK
Log10 CFU/g of Vegetation (MRSA; PlySs2 0.18 mg/kg, TSAB supplemented with PlySs2, 128 (unit not given)): 4.6 ± 0.7 Log10 CFU/g | Log10 CFU/g of Vegetation (MRSA; PlySs2 0.18 mg/kg, TSAB supplemented with PlySs2, column 16 (unit not printed)): 7.1 ± 0.1 Log10 CFU/g | Log10 CFU/g of Vegetation (MRSA; PlySs2 0.18 mg/kg, TSAB supplemented with PlySs2, column 32 (unit not printed)): 7.1 ± 0.1 Log10 CFU/g | Log10 CFU/g of Vegetation (MRSA; PlySs2 0.18 mg/kg, TSAB supplemented with PlySs2, column 64 (unit not given)): 6.6 ± 0.9 Log10 CFU/g | Log10 CFU/g of Vegetation (MRSA; PlySs2 0.35 mg/kg, TSAB supplemented with PlySs2, 128 (unit not given)): 3.4 ± 1.3 Log10 CFU/g | Log10 CFU/g of Vegetation (MRSA; PlySs2 0.35 mg/kg, TSAB supplemented with PlySs2, column 16 (unit not printed)): 6.9 ± 0.2 Log10 CFU/g | Log10 CFU/g of Vegetation (MRSA; PlySs2 0.35 mg/kg, TSAB supplemented with PlySs2, column 32 (unit not printed)): 6.4 ± 0.5 Log10 CFU/g | Log10 CFU/g of Vegetation (MRSA; PlySs2 0.35 mg/kg, TSAB supplemented with PlySs2, column 64 (unit not given)): 5.5 ± 0.6 Log10 CFU/g | Log10 CFU/g of Vegetation (MRSA; PlySs2 0.7 mg/kg, TSAB supplemented with PlySs2, 128 (unit not given)): <2.1 ± 0.1 Log10 CFU/g | Log10 CFU/g of Vegetation (MRSA; PlySs2 0.7 mg/kg, TSAB supplemented with PlySs2, column 16 (unit not printed)): 6.7 ± 0.1 Log10 CFU/g | Log10 CFU/g of Vegetation (MRSA; PlySs2 0.7 mg/kg, TSAB supplemented with PlySs2, column 32 (unit not printed)): 5.7 ± 1.1 Log10 CFU/g | Log10 CFU/g of Vegetation (MRSA; PlySs2 0.7 mg/kg, TSAB supplemented with PlySs2, column 64 (unit not given)): 3.8 ± 1.8 Log10 CFU/g | Log10 CFU/g of Vegetation (MRSA; PlySs2 1.4 mg/kg, TSAB supplemented with PlySs2, 128 (unit not given)): 2.8 ± 1.2 Log10 CFU/g | Log10 CFU/g of Vegetation (MRSA; PlySs2 1.4 mg/kg, TSAB supplemented with PlySs2, column 16 (unit not printed)): 7.1 ± 0.06 Log10 CFU/g | Log10 CFU/g of Vegetation (MRSA; PlySs2 1.4 mg/kg, TSAB supplemented with PlySs2, column 32 (unit not printed)): 5.9 ± 0.03 Log10 CFU/g | Log10 CFU/g of Vegetation (MRSA; PlySs2 1.4 mg/kg, TSAB supplemented with PlySs2, column 64 (unit not given)): 4.2 ± 1.7 Log10 CFU/g | Log10 CFU/g of Vegetation (MRSA; single dose PlySs2 0.18 mg/kg, four days after treatment, TSAB non-selective (0)): 8.65 ± 0.58 Log10 CFU/g | Log10 CFU/g of Vegetation (MRSA; single dose PlySs2 0.35 mg/kg, four days after treatment, TSAB non-selective (0)): 8.17 ± 0.58 Log10 CFU/g | Log10 CFU/g of Vegetation (MRSA; single dose PlySs2 0.7 mg/kg, four days after treatment, TSAB non-selective (0)): 7.93 ± 0.12 Log10 CFU/g | Log10 CFU/g of Vegetation (MRSA; single dose PlySs2 1.4 mg/kg, four days after treatment, TSAB non-selective (0)): 8.24 ± 0.02 Log10 CFU/g | MICinitial (MRSA strain JMI 227; each agent alone (initial)): 1 | MICfinal (MRSA strain JMI 227; [2]): 0.25 | MICfinal (MRSA strain JMI 227; [3]): 0.25 | MICfinal (MRSA strain JMI 227; [4]): 0.25 | MICinitial (MRSA strain JMI 1280; each agent alone (initial)): 1 | MICfinal (MRSA strain JMI 1280; [2]): 0.25 | MICfinal (MRSA strain JMI 1280; [3]): 0.25 | MICfinal (MRSA strain JMI 1280; [4]): 0.25 | MICinitial (MRSA strain JMI4789; each agent alone (initial)): 1 | MICfinal (MRSA strain JMI4789; [2]): 0.125 | MICfinal (MRSA strain JMI4789; [3]): 0.125 | MICfinal (MRSA strain JMI4789; [4]): 0.25 | PlySs2 MIC of recovered isolates ([1]; non-selective conditions, remained stable): 1 µg/mL | Number of isolates with Oxacillin MIC 32 μg/mL [1, 5]: 16 | Number of isolates with PlySs2 MIC 1 μg/mL [1, 5]: 16 | Number of isolates with Oxacillin MIC 32 μg/mL [1, 6]: 18 | Number of isolates with Oxacillin MIC ≤2 μg/mL [1, 6]: 6 | Number of isolates with PlySs2 MIC 0.5 μg/mL [1, 6]: 3 | Number of isolates with PlySs2 MIC 1 μg/mL [1, 6]: 21 | Number of isolates with Oxacillin MIC 16 μg/mL [1, 7]: 1 | Number of isolates with Oxacillin MIC 32 μg/mL [1, 7]: 23 | Number of isolates with PlySs2 MIC 0.5 μg/mL [1, 7]: 1 | Number of isolates with PlySs2 MIC 1 μg/mL [1, 7]: 23 | Number of isolates with Oxacillin MIC 32 μg/mL [1, 8]: 17 | Number of isolates with Oxacillin MIC ≤2 μg/mL [1, 8]: 7 | Number of isolates with PlySs2 MIC 1 μg/mL ([1]; non-selective, rabbits given PlySs2 1.4 mg/kg (n = 24)): 24 | PlySs2 MIC increase ([1]; selective conditions, isolates after PlySs2 treatment): ≤ 2 fold | Number of isolates with Oxacillin MIC 32 μg/mL [1, 9]: 16 | Number of isolates with PlySs2 MIC 1 μg/mL [1, 9]: 14 | Number of isolates with PlySs2 MIC 2 μg/mL [1, 9]: 2 | Number of isolates with Oxacillin MIC 32 μg/mL [1, 10]: 17 | Number of isolates with Oxacillin MIC <2 μg/mL [1, 10]: 7 | Number of isolates with PlySs2 MIC 1 μg/mL [1, 10]: 22 | Number of isolates with PlySs2 MIC 2 μg/mL [1, 10]: 2 | Number of isolates with Oxacillin MIC 32 μg/mL [1, 11]: 21 | Number of isolates with PlySs2 MIC 1 μg/mL [1, 11]: 19 | Number of isolates with PlySs2 MIC 2 μg/mL [1, 11]: 3 | Number of isolates with Oxacillin MIC between <2 and 32 μg/mL (4, 8 or 16) ([1]; selective conditions, PlySs2 0.7 mg/kg (n = 24), column not resolvable): 3 | Number of isolates with Oxacillin MIC 32 μg/mL [1, 12]: 21 | Number of isolates with Oxacillin MIC <2 μg/mL [1, 12]: 3 | Number of isolates with PlySs2 MIC 1 μg/mL [1, 12]: 20 | Number of isolates with PlySs2 MIC 2 μg/mL [1, 12]: 4 | PlySs2 MIC of recovered isolates ([1]; selective conditions, remained largely stable): 1 µg/mL | MIC of S. aureus strain MW2 (S. aureus strain MW2): 1 µg/mL
